Patent publication US20020090382A1, “Antiviral compounds and methods” (University of Pittsburgh of the Commonwealth System of …, priority 2000, published 2002)

What was measured:
HveA on CHO-HveA cells = HveA on CHO-HveA cells (UniProt Q92956); assay: cell-based or functional assay
HveC on CHO-HveC cells = HveC on CHO-HveC cells (UniProt Q15223); assay: cell-based or functional assay
Sequence of HveC on CHO-HveC cells (Q15223 31-517 limits assumed): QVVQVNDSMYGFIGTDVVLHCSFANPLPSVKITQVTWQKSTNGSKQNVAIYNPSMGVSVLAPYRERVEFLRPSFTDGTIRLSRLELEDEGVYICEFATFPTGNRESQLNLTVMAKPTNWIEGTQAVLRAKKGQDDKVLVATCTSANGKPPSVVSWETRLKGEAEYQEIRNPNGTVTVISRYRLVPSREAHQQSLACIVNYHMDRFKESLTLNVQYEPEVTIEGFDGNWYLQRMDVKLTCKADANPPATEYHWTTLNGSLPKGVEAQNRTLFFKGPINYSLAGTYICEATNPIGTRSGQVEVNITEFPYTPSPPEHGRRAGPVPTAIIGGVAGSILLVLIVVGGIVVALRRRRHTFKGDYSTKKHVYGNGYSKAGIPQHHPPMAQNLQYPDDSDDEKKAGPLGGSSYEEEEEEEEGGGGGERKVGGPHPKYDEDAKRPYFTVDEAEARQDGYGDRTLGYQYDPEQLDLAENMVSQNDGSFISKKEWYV

Sequence of HveA on CHO-HveA cells (Q92956 39-283 limits assumed): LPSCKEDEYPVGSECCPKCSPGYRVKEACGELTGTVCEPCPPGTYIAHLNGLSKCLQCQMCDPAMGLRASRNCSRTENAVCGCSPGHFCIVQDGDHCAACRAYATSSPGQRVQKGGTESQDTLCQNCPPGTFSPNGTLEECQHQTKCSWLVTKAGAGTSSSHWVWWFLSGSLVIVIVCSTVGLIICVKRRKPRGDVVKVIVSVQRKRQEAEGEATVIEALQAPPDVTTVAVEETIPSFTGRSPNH

For gD A7H (ligand), the % Complementation, CHO-HveA (HveA on CHO-HveA cells) was 80% and the % Complementation, CHO-HveC (HveC on CHO-HveC cells) was 100%.
gD A7L (ligand) was tested, and the % Complementation, CHO-HveA (HveA on CHO-HveA cells) was 0% and the % Complementation, CHO-HveC (HveC on CHO-HveC cells) was 100%.
gD A7R (ligand) showed a % Complementation, CHO-HveA (HveA on CHO-HveA cells) of 0% and a % Complementation, CHO-HveC (HveC on CHO-HveC cells) of 98%.
For gD D6A (ligand), the % Complementation, CHO-HveA (HveA on CHO-HveA cells) was 0% and the % Complementation, CHO-HveC (HveC on CHO-HveC cells) was 99%.
gD D6L (ligand) showed a % Complementation, CHO-HveA (HveA on CHO-HveA cells) of 0% and a % Complementation, CHO-HveC (HveC on CHO-HveC cells) of 98%.
“gD D26H (from UniProt A1Z0Q5 26-394) (ligand)” was tested, and the % Complementation, CHO-HveA (HveA on CHO-HveA cells) was 10% and the % Complementation, CHO-HveC (HveC on CHO-HveC cells) was 11%.
Work on gD D26S (ligand) yielded a % Complementation, CHO-HveA (HveA on CHO-HveA cells) of 20% and a % Complementation, CHO-HveC (HveC on CHO-HveC cells) of 7%.
With gD D26V (ligand) the % Complementation, CHO-HveA (HveA on CHO-HveA cells) was 0% and the % Complementation, CHO-HveC (HveC on CHO-HveC cells) was 26%.
“gD D30H (from UniProt A1Z0Q5 26-394) (ligand)” gave a % Complementation, CHO-HveA (HveA on CHO-HveA cells) of 0% and a % Complementation, CHO-HveC (HveC on CHO-HveC cells) of 6%.
For gD D30I (ligand), the % Complementation, CHO-HveA (HveA on CHO-HveA cells) was 0% and the % Complementation, CHO-HveC (HveC on CHO-HveC cells) was 4%.
With gD D30V (ligand) the % Complementation, CHO-HveA (HveA on CHO-HveA cells) was 0% and the % Complementation, CHO-HveC (HveC on CHO-HveC cells) was 8%.
Work on “gD G33L (from UniProt A1Z0Q5 26-394) (ligand)” yielded a % Complementation, CHO-HveA (HveA on CHO-HveA cells) of 9% and a % Complementation, CHO-HveC (HveC on CHO-HveC cells) of 79%.
Substance gD H39Q (ligand) has a % Complementation, CHO-HveA (HveA on CHO-HveA cells) of 50% and a % Complementation, CHO-HveC (HveC on CHO-HveC cells) of 100%.
gD H39V (ligand) showed a % Complementation, CHO-HveA (HveA on CHO-HveA cells) of 75% and a % Complementation, CHO-HveC (HveC on CHO-HveC cells) of 66%.
With gD I40A (ligand) the % Complementation, CHO-HveA (HveA on CHO-HveA cells) was 0% and the % Complementation, CHO-HveC (HveC on CHO-HveC cells) was 0%.
For “gD I40N (from UniProt A1Z0Q5 26-394) (ligand)”, the % Complementation, CHO-HveA (HveA on CHO-HveA cells) was 0% and the % Complementation, CHO-HveC (HveC on CHO-HveC cells) was 0%.
Work on gD K1D (ligand) yielded a % Complementation, CHO-HveA (HveA on CHO-HveA cells) of 100% and a % Complementation, CHO-HveC (HveC on CHO-HveC cells) of 100%.
Work on gD L9A (ligand) yielded a % Complementation, CHO-HveA (HveA on CHO-HveA cells) of 0% and a % Complementation, CHO-HveC (HveC on CHO-HveC cells) of 100%.
gD L9P (ligand) showed a % Complementation, CHO-HveA (HveA on CHO-HveA cells) of 0% and a % Complementation, CHO-HveC (HveC on CHO-HveC cells) of 100%.
gD L9R (ligand) was tested, and the % Complementation, CHO-HveA (HveA on CHO-HveA cells) was 0% and the % Complementation, CHO-HveC (HveC on CHO-HveC cells) was 97%.
Work on “gD L25D (from UniProt A1Z0Q5 26-394) (ligand)” yielded a % Complementation, CHO-HveA (HveA on CHO-HveA cells) of 0% and a % Complementation, CHO-HveC (HveC on CHO-HveC cells) of 14%.
Substance “gD L25H (from UniProt A1Z0Q5 26-394) (ligand)” has a % Complementation, CHO-HveA (HveA on CHO-HveA cells) of 0% and a % Complementation, CHO-HveC (HveC on CHO-HveC cells) of 12%.
For “gD L25I (from UniProt A1Z0Q5 26-394) (ligand)”, the % Complementation, CHO-HveA (HveA on CHO-HveA cells) was 0% and the % Complementation, CHO-HveC (HveC on CHO-HveC cells) was 5%.
For “gD L25T (from UniProt A1Z0Q5 26-394) (ligand)”, the % Complementation, CHO-HveA (HveA on CHO-HveA cells) was 0% and the % Complementation, CHO-HveC (HveC on CHO-HveC cells) was 3%.
gD L28C (ligand) gave a % Complementation, CHO-HveA (HveA on CHO-HveA cells) of 0% and a % Complementation, CHO-HveC (HveC on CHO-HveC cells) of 100%.
With gD L28F (ligand) the % Complementation, CHO-HveA (HveA on CHO-HveA cells) was 0% and the % Complementation, CHO-HveC (HveC on CHO-HveC cells) was 41%.
gD L28G (ligand) gave a % Complementation, CHO-HveA (HveA on CHO-HveA cells) of 0% and a % Complementation, CHO-HveC (HveC on CHO-HveC cells) of 100%.
gD L28P (ligand) showed a % Complementation, CHO-HveA (HveA on CHO-HveA cells) of 0% and a % Complementation, CHO-HveC (HveC on CHO-HveC cells) of 69%.
Work on gD L28S (ligand) yielded a % Complementation, CHO-HveA (HveA on CHO-HveA cells) of 0% and a % Complementation, CHO-HveC (HveC on CHO-HveC cells) of 83%.
Substance gD L44C (ligand) has a % Complementation, CHO-HveA (HveA on CHO-HveA cells) of 69% and a % Complementation, CHO-HveC (HveC on CHO-HveC cells) of 83%.
Work on gD L44G (ligand) yielded a % Complementation, CHO-HveA (HveA on CHO-HveA cells) of 0% and a % Complementation, CHO-HveC (HveC on CHO-HveC cells) of 8%.
gD L44P (ligand) gave a % Complementation, CHO-HveA (HveA on CHO-HveA cells) of 53% and a % Complementation, CHO-HveC (HveC on CHO-HveC cells) of 71%.
For “gD P31G (from UniProt A1Z0Q5 26-394) (ligand)”, the % Complementation, CHO-HveA (HveA on CHO-HveA cells) was 0% and the % Complementation, CHO-HveC (HveC on CHO-HveC cells) was 100%.
Substance “gD P32H (from UniProt A1Z0Q5 26-394) (ligand)” has a % Complementation, CHO-HveA (HveA on CHO-HveA cells) of 6% and a % Complementation, CHO-HveC (HveC on CHO-HveC cells) of 100%.
gD Q27G (ligand) was tested, and the % Complementation, CHO-HveA (HveA on CHO-HveA cells) was 0% and the % Complementation, CHO-HveC (HveC on CHO-HveC cells) was 0%.
Work on gD Q27H (ligand) yielded a % Complementation, CHO-HveA (HveA on CHO-HveA cells) of 0% and a % Complementation, CHO-HveC (HveC on CHO-HveC cells) of 14%.
Work on gD Q27P (rid1) (ligand) yielded a % Complementation, CHO-HveA (HveA on CHO-HveA cells) of 0% and a % Complementation, CHO-HveC (HveC on CHO-HveC cells) of 83%.
Substance gD Q27S (ligand) has a % Complementation, CHO-HveA (HveA on CHO-HveA cells) of 0% and a % Complementation, CHO-HveC (HveC on CHO-HveC cells) of 9%.
Substance gD Q27T (ligand) has a % Complementation, CHO-HveA (HveA on CHO-HveA cells) of 0% and a % Complementation, CHO-HveC (HveC on CHO-HveC cells) of 0%.
For gD Q41P (ligand), the % Complementation, CHO-HveA (HveA on CHO-HveA cells) was 0% and the % Complementation, CHO-HveC (HveC on CHO-HveC cells) was 18%.
Work on “gD R36A (from UniProt A1Z0Q5 26-394) (ligand)” yielded a % Complementation, CHO-HveA (HveA on CHO-HveA cells) of 0% and a % Complementation, CHO-HveC (HveC on CHO-HveC cells) of 0%.
“gD R36D (from UniProt A1Z0Q5 26-394) (ligand)” was tested, and the % Complementation, CHO-HveA (HveA on CHO-HveA cells) was 0% and the % Complementation, CHO-HveC (HveC on CHO-HveC cells) was 0%.
For “gD R36I (from UniProt A1Z0Q5 26-394) (ligand)”, the % Complementation, CHO-HveA (HveA on CHO-HveA cells) was 0% and the % Complementation, CHO-HveC (HveC on CHO-HveC cells) was 0%.
gD S8A (ligand) gave a % Complementation, CHO-HveA (HveA on CHO-HveA cells) of 40% and a % Complementation, CHO-HveC (HveC on CHO-HveC cells) of 100%.
gD S8L (ligand) showed a % Complementation, CHO-HveA (HveA on CHO-HveA cells) of 0% and a % Complementation, CHO-HveC (HveC on CHO-HveC cells) of 99%.
With gD T29G (ligand) the % Complementation, CHO-HveA (HveA on CHO-HveA cells) was 0% and the % Complementation, CHO-HveC (HveC on CHO-HveC cells) was 100%.
gD T29Y (ligand) was tested, and the % Complementation, CHO-HveA (HveA on CHO-HveA cells) was 0% and the % Complementation, CHO-HveC (HveC on CHO-HveC cells) was 100%.
gD^-R (gD A5I) (ligand) was tested, and the % Complementation, CHO-HveA (HveA on CHO-HveA cells) was 85% and the % Complementation, CHO-HveC (HveC on CHO-HveC cells) was 100%.
gDΔ2-5 (ligand) was tested, and the % Complementation, CHO-HveA (HveA on CHO-HveA cells) was 0% and the % Complementation, CHO-HveC (HveC on CHO-HveC cells) was 95%.
gDΔ6-9 (ligand) showed a % Complementation, CHO-HveA (HveA on CHO-HveA cells) of 0% and a % Complementation, CHO-HveC (HveC on CHO-HveC cells) of 100%.
For gDΔ6-24:GSK (ligand), the % Complementation, CHO-HveA (HveA on CHO-HveA cells) was 0% and the % Complementation, CHO-HveC (HveC on CHO-HveC cells) was 19%.
gDΔ10-16 (ligand) gave a % Complementation, CHO-HveA (HveA on CHO-HveA cells) of 0% and a % Complementation, CHO-HveC (HveC on CHO-HveC cells) of 100%.
Substance gDΔ17-21 (ligand) has a % Complementation, CHO-HveA (HveA on CHO-HveA cells) of 0% and a % Complementation, CHO-HveC (HveC on CHO-HveC cells) of 100%.
gDΔ21-24 (ligand) gave a % Complementation, CHO-HveA (HveA on CHO-HveA cells) of 0% and a % Complementation, CHO-HveC (HveC on CHO-HveC cells) of 100%.
In the case of “wild-type gD (HSV-1 strain KOS) (ligand)”, the % Complementation, CHO-HveA (HveA on CHO-HveA cells) was 100% and the % Complementation, CHO-HveC (HveC on CHO-HveC cells) was 100%.
